We go through six molecules from patent US20140087995A1 (published 2014).

The IC50 is the midpoint of a concentration-inhibition curve.

Sequences and labels used below:
B1: N^ε1-[(4S)-4-carboxy-4-(19-carboxynonadecanoylamino)butanoyl]-[Arg17,Pro21,Pro27,His35]-h-amylin (peptide)
peptide: K([γGlu-C20 diacid])CNTATCATQRLANFLRHSSPNFGAIPSSTNVGSHTY-NH2
modifications: disulfide 2-7; N-terminus assumed
SMILES: CC[C@H](C)[C@H](NC(=O)[C@H](C)NC(=O)CNC(=O)[C@H](Cc1ccccc1)NC(=O)[C@H](CC(N)=O)NC(=O)[C@@H]1CCCN1C(=O)[C@H](CO)NC(=O)[C@H](CO)NC(=O)[C@H](Cc1c[nH]cn1)NC(=O)[C@H](CCCNC(=N)N)NC(=O)[C@H](CC(C)C)NC(=O)[C@H](Cc1ccccc1)NC(=O)[C@H](CC(N)=O)NC(=O)[C@H](C)NC(=O)[C@H](CC(C)C)NC(=O)[C@H](CCCNC(=N)N)NC(=O)[C@H](CCC(N)=O)NC(=O)[C@@H](NC(=O)[C@H](C)NC(=O)[C@@H]1CSSC[C@H](NC(=O)[C@@H](N)CCCCNC(=O)CC[C@H](NC(=O)CCCCCCCCCCCCCCCCCCC(=O)O)C(=O)O)C(=O)N[C@@H](CC(N)=O)C(=O)N[C@@H]([C@@H](C)O)C(=O)N[C@@H](C)C(=O)N[C@@H]([C@@H](C)O)C(=O)N1)[C@@H](C)O)C(=O)N1CCC[C@H]1C(=O)N[C@@H](CO)C(=O)N[C@@H](CO)C(=O)N[C@H](C(=O)N[C@@H](CC(N)=O)C(=O)N[C@H](C(=O)NCC(=O)N[C@@H](CO)C(=O)N[C@@H](Cc1c[nH]cn1)C(=O)N[C@H](C(=O)N[C@@H](Cc1ccc(O)cc1)C(N)=O)[C@@H](C)O)C(C)C)[C@@H](C)O
notes: also called compound 60
B2: N^ε1-[(4S)-4-carboxy-4-(19-carboxynonadecanoylamino)butanoyl]-[His14,Arg17,Pro21,Pro27,Pro31]-h-amylin (peptide)
peptide: K([γGlu-C20 diacid])CNTATCATQRLAHFLRHSSPNFGAIPSSTPVGSNTY-NH2
modifications: disulfide 2-7; N-terminus assumed
SMILES: CC[C@H](C)[C@H](NC(=O)[C@H](C)NC(=O)CNC(=O)[C@H](Cc1ccccc1)NC(=O)[C@H](CC(N)=O)NC(=O)[C@@H]1CCCN1C(=O)[C@H](CO)NC(=O)[C@H](CO)NC(=O)[C@H](Cc1c[nH]cn1)NC(=O)[C@H](CCCNC(=N)N)NC(=O)[C@H](CC(C)C)NC(=O)[C@H](Cc1ccccc1)NC(=O)[C@H](Cc1c[nH]cn1)NC(=O)[C@H](C)NC(=O)[C@H](CC(C)C)NC(=O)[C@H](CCCNC(=N)N)NC(=O)[C@H](CCC(N)=O)NC(=O)[C@@H](NC(=O)[C@H](C)NC(=O)[C@@H]1CSSC[C@H](NC(=O)[C@@H](N)CCCCNC(=O)CC[C@H](NC(=O)CCCCCCCCCCCCCCCCCCC(=O)O)C(=O)O)C(=O)N[C@@H](CC(N)=O)C(=O)N[C@@H]([C@@H](C)O)C(=O)N[C@@H](C)C(=O)N[C@@H]([C@@H](C)O)C(=O)N1)[C@@H](C)O)C(=O)N1CCC[C@H]1C(=O)N[C@@H](CO)C(=O)N[C@@H](CO)C(=O)N[C@H](C(=O)N1CCC[C@H]1C(=O)N[C@H](C(=O)NCC(=O)N[C@@H](CO)C(=O)N[C@@H](CC(N)=O)C(=O)N[C@H](C(=O)N[C@@H](Cc1ccc(O)cc1)C(N)=O)[C@@H](C)O)C(C)C)[C@@H](C)O
notes: also called compound 62
B3: N^ε1-[(4S)-4-carboxy-4-(19-carboxynonadecanoylamino)butanoyl]-[His14,Arg17,Pro21,Pro27,His34]-h-amylin (peptide)
peptide: K([γGlu-C20 diacid])CNTATCATQRLAHFLRHSSPNFGAIPSSTNVGHNTY-NH2
modifications: disulfide 2-7; N-terminus assumed
SMILES: CC[C@H](C)[C@H](NC(=O)[C@H](C)NC(=O)CNC(=O)[C@H](Cc1ccccc1)NC(=O)[C@H](CC(N)=O)NC(=O)[C@@H]1CCCN1C(=O)[C@H](CO)NC(=O)[C@H](CO)NC(=O)[C@H](Cc1c[nH]cn1)NC(=O)[C@H](CCCNC(=N)N)NC(=O)[C@H](CC(C)C)NC(=O)[C@H](Cc1ccccc1)NC(=O)[C@H](Cc1c[nH]cn1)NC(=O)[C@H](C)NC(=O)[C@H](CC(C)C)NC(=O)[C@H](CCCNC(=N)N)NC(=O)[C@H](CCC(N)=O)NC(=O)[C@@H](NC(=O)[C@H](C)NC(=O)[C@@H]1CSSC[C@H](NC(=O)[C@@H](N)CCCCNC(=O)CC[C@H](NC(=O)CCCCCCCCCCCCCCCCCCC(=O)O)C(=O)O)C(=O)N[C@@H](CC(N)=O)C(=O)N[C@@H]([C@@H](C)O)C(=O)N[C@@H](C)C(=O)N[C@@H]([C@@H](C)O)C(=O)N1)[C@@H](C)O)C(=O)N1CCC[C@H]1C(=O)N[C@@H](CO)C(=O)N[C@@H](CO)C(=O)N[C@H](C(=O)N[C@@H](CC(N)=O)C(=O)N[C@H](C(=O)NCC(=O)N[C@@H](Cc1c[nH]cn1)C(=O)N[C@@H](CC(N)=O)C(=O)N[C@H](C(=O)N[C@@H](Cc1ccc(O)cc1)C(N)=O)[C@@H](C)O)C(C)C)[C@@H](C)O
notes: also called compound 81
B4: N^ε1-[(4S)-4-carboxy-4-(19-carboxynonadecanoylamino)butanoyl]-[Glu14,Arg17,Pro21,Pro27,Arg35]-h-amylin (peptide)
peptide: K([γGlu-C20 diacid])CNTATCATQRLAEFLRHSSPNFGAIPSSTNVGSRTY-NH2
modifications: disulfide 2-7; N-terminus assumed
SMILES: CC[C@H](C)[C@H](NC(=O)[C@H](C)NC(=O)CNC(=O)[C@H](Cc1ccccc1)NC(=O)[C@H](CC(N)=O)NC(=O)[C@@H]1CCCN1C(=O)[C@H](CO)NC(=O)[C@H](CO)NC(=O)[C@H](Cc1c[nH]cn1)NC(=O)[C@H](CCCNC(=N)N)NC(=O)[C@H](CC(C)C)NC(=O)[C@H](Cc1ccccc1)NC(=O)[C@H](CCC(=O)O)NC(=O)[C@H](C)NC(=O)[C@H](CC(C)C)NC(=O)[C@H](CCCNC(=N)N)NC(=O)[C@H](CCC(N)=O)NC(=O)[C@@H](NC(=O)[C@H](C)NC(=O)[C@@H]1CSSC[C@H](NC(=O)[C@@H](N)CCCCNC(=O)CC[C@H](NC(=O)CCCCCCCCCCCCCCCCCCC(=O)O)C(=O)O)C(=O)N[C@@H](CC(N)=O)C(=O)N[C@@H]([C@@H](C)O)C(=O)N[C@@H](C)C(=O)N[C@@H]([C@@H](C)O)C(=O)N1)[C@@H](C)O)C(=O)N1CCC[C@H]1C(=O)N[C@@H](CO)C(=O)N[C@@H](CO)C(=O)N[C@H](C(=O)N[C@@H](CC(N)=O)C(=O)N[C@H](C(=O)NCC(=O)N[C@@H](CO)C(=O)N[C@@H](CCCNC(=N)N)C(=O)N[C@H](C(=O)N[C@@H](Cc1ccc(O)cc1)C(N)=O)[C@@H](C)O)C(C)C)[C@@H](C)O
notes: also called compound 51
B5: N^ε1-[(4S)-4-carboxy-4-(19-carboxynonadecanoylamino)butanoyl]-[His14,Arg17,Pro21,Pro27,His35]-h-amylin (peptide)
peptide: K([γGlu-C20 diacid])CNTATCATQRLAHFLRHSSPNFGAIPSSTNVGSHTY-NH2
modifications: disulfide 2-7; N-terminus assumed
SMILES: CC[C@H](C)[C@H](NC(=O)[C@H](C)NC(=O)CNC(=O)[C@H](Cc1ccccc1)NC(=O)[C@H](CC(N)=O)NC(=O)[C@@H]1CCCN1C(=O)[C@H](CO)NC(=O)[C@H](CO)NC(=O)[C@H](Cc1c[nH]cn1)NC(=O)[C@H](CCCNC(=N)N)NC(=O)[C@H](CC(C)C)NC(=O)[C@H](Cc1ccccc1)NC(=O)[C@H](Cc1c[nH]cn1)NC(=O)[C@H](C)NC(=O)[C@H](CC(C)C)NC(=O)[C@H](CCCNC(=N)N)NC(=O)[C@H](CCC(N)=O)NC(=O)[C@@H](NC(=O)[C@H](C)NC(=O)[C@@H]1CSSC[C@H](NC(=O)[C@@H](N)CCCCNC(=O)CC[C@H](NC(=O)CCCCCCCCCCCCCCCCCCC(=O)O)C(=O)O)C(=O)N[C@@H](CC(N)=O)C(=O)N[C@@H]([C@@H](C)O)C(=O)N[C@@H](C)C(=O)N[C@@H]([C@@H](C)O)C(=O)N1)[C@@H](C)O)C(=O)N1CCC[C@H]1C(=O)N[C@@H](CO)C(=O)N[C@@H](CO)C(=O)N[C@H](C(=O)N[C@@H](CC(N)=O)C(=O)N[C@H](C(=O)NCC(=O)N[C@@H](CO)C(=O)N[C@@H](Cc1c[nH]cn1)C(=O)N[C@H](C(=O)N[C@@H](Cc1ccc(O)cc1)C(N)=O)[C@@H](C)O)C(C)C)[C@@H](C)O
notes: also called compound 66
B6: N^ε1-[(4S)-4-carboxy-4-(19-carboxynonadecanoylamino)butanoyl]-[His14,Arg17,Pro21,Pro27,Arg34]-h-amylin (peptide)
peptide: K([γGlu-C20 diacid])CNTATCATQRLAHFLRHSSPNFGAIPSSTNVGRNTY-NH2
modifications: disulfide 2-7; N-terminus assumed
SMILES: CC[C@H](C)[C@H](NC(=O)[C@H](C)NC(=O)CNC(=O)[C@H](Cc1ccccc1)NC(=O)[C@H](CC(N)=O)NC(=O)[C@@H]1CCCN1C(=O)[C@H](CO)NC(=O)[C@H](CO)NC(=O)[C@H](Cc1c[nH]cn1)NC(=O)[C@H](CCCNC(=N)N)NC(=O)[C@H](CC(C)C)NC(=O)[C@H](Cc1ccccc1)NC(=O)[C@H](Cc1c[nH]cn1)NC(=O)[C@H](C)NC(=O)[C@H](CC(C)C)NC(=O)[C@H](CCCNC(=N)N)NC(=O)[C@H](CCC(N)=O)NC(=O)[C@@H](NC(=O)[C@H](C)NC(=O)[C@@H]1CSSC[C@H](NC(=O)[C@@H](N)CCCCNC(=O)CC[C@H](NC(=O)CCCCCCCCCCCCCCCCCCC(=O)O)C(=O)O)C(=O)N[C@@H](CC(N)=O)C(=O)N[C@@H]([C@@H](C)O)C(=O)N[C@@H](C)C(=O)N[C@@H]([C@@H](C)O)C(=O)N1)[C@@H](C)O)C(=O)N1CCC[C@H]1C(=O)N[C@@H](CO)C(=O)N[C@@H](CO)C(=O)N[C@H](C(=O)N[C@@H](CC(N)=O)C(=O)N[C@H](C(=O)NCC(=O)N[C@@H](CCCNC(=N)N)C(=O)N[C@@H](CC(N)=O)C(=O)N[C@H](C(=O)N[C@@H](Cc1ccc(O)cc1)C(N)=O)[C@@H](C)O)C(C)C)[C@@H](C)O
notes: also called compound 85

Numbered stars: 1 amine (or outer) side, 2 acyl side, 3 side chain; on linkers, the order of the positions; unused ones are H or OH. Bridge positions count the residues as written; N and C are the ends. Side chains are listed from the residue outwards. Ends that are not written are not given here. * marks the point of attachment. C20 diacid = O=C(O)CCCCCCCCCCCCCCCCCCC(=O)*; γGlu = O=C(O)[C@H](CCC(=O)[*:2])N[*:1]

One assay addresses T1, human calcitonin receptor (human, UniProt P30988 25-474).
T1 construct: whole, on cells; Assayed as cell membranes of BHK tk'ts 13 cells stably transfected with the human calcitonin receptor (Assay VII); also called hCTR; hCT
T1 sequence (looked up): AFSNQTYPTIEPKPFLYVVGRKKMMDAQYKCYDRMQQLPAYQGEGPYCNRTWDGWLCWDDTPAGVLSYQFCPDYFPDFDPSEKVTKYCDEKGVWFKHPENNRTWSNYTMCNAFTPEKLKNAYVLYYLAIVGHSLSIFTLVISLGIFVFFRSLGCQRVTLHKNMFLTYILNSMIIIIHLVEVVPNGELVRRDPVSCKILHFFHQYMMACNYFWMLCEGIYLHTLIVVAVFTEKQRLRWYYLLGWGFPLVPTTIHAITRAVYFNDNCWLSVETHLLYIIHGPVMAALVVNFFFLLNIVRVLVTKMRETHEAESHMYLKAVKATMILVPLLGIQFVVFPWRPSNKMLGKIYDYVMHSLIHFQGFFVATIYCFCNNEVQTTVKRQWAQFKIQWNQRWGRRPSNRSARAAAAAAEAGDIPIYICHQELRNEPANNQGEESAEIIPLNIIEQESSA
The experiment in a line: SPA competition vs 125I-calcitonin, membranes of BHK cells with human calcitonin receptor (Assay VII). An outline of the steps: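 BHK hCTR membranes 35 ng/μL + SPA beads 0.05 mg/well; buffer 50 mM Hepes pH 7.4, 1 mM CaCl2, 5 mM MgCl₂, 0.1% OA, 0.02% Tween20. 120 min, 25° C., shaking. Scintillation count; IC50 by one-site binding competition.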
For B1, the half-maximal inhibitory concentration (IC50) worked out at 31.4 nM.

For the molecule B2, the half-maximal inhibitory concentration (IC50) is 6.17 nM.

As to B3, the IC50 stood at 23.6 nM.

For B4, the concentration for half-maximal inhibition (IC50) turned out to be 31.1 nM.

On to B5, for which the IC50 was 18 nM.

For the molecule B6, the IC50 was found to be 80.4 nM.

In the next assay the target is T1, human calcitonin receptor. In words: IC50 at hCTR divided by IC50 at hAmylin-R (SPA competition assays V and VII). An outline of the steps: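 Competition binding by SPA with cell membranes (35 ng/μL) and SPA beads in 50 mM Hepes pH 7.4 with 1 mM CaCl2, 5 mM MgCl2, 0.1% OA and 0.02% Tween20. Incubated 120 min at 25 °C with shaking, then counted.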
With B1, the “Ratio hCT/hAmylin binding” value was 45.2.

As for B2, the “Ratio hCT/hAmylin binding” value was 63.

For B3, the “Ratio hCT/hAmylin binding” value was 87.2.

For the molecule B4, the “Ratio hCT/hAmylin binding” value amounted to 37.5.

Regarding B5, the “Ratio hCT/hAmylin binding” value was found to be 45.5.

B6: the “Ratio hCT/hAmylin binding” value was found to be 91.8.
